Measurements from publication PMC8123555, “Precision targeting of the plasminogen activator inhibitor‐1 mechanism increases efficacy of fibrinolytic therapy in empyema” (Physiological Reports, 2021).

Key:
[1] = test system: plasminogen activating activity in pleural fluid; experiment: Intrapleural inactivation of tPA and uPA plasminogen activating activity, TCN-induced injury; type: in vivo, rabbit; details: during PAI-1-TFT of chemically induced pleural injury; slower phase, 10-40 min
Experimental: (§1) Amidolytic activity was measured in clear 96‐well flat bottom plates from Costar (Corning Inc.) using a Synergy™ HT Hybrid Reader (BioTek, Winooski, VT). Amidolytic activity was calculated from the initial slopes of the time traces of the change in absorbance at 405 nm upon hydrolysis of chromogenic as described previously (Komissarov et al., 2009, 2013). The plasminogen activating activity was determined from the relative rate of activation of exogenous Glu‐plasminogen added to the reaction mixture containing 0.1–0.5 µl of pleural fluid in 0.1 ml of Hepes buffer solution with BSA (1 mg/ml) as previously described (Florova et al., 2013, 2018). The reaction mixtures (0.1 ml in black 96‐well flat bottom plates from Costar) contained 100 nM of human Glu‐plasminogen with 0.2 mM of SN‐5 plasmin fluorogenic substrate (HTI, Essex Junction, VT). Plasmin activity was measured by recording changes in the fluorescence emission at 470 nm (F470) with time (excitation at 352 nm) using a Synergy™ HT Hybrid Reader (BioTek, Winooski, VT). The level of plasminogen activating activity [PA] was calculated from slopes of linear dependences of F470 from square of time (t^2) (F470 = A [PA] t^2 + B; where A and B are constants), and results of measurements of standards with known concentrations of tcuPA and tctPA as previously described (Komissarov et al., 2009, 2013). […]

[2] = test system: plasminogen activating activity in pleural fluid; experiment: Intrapleural inactivation of tPA and uPA plasminogen activating activity, empyema; type: in vivo, rabbit; details: infectious pleural injury
Experimental: as §1

[3] = test system: Streptococcus pneumoniae induced empyema; details: higher in empyema; ref Idell et al., 2007; cited from earlier work
Source text: (§2) Plasminogen Activator Inhibitor‐1 (PAI‐1) is a mechanism‐based inhibitor of tissue type (tPA) and urokinase (uPA) plasminogen activators (PAs) (Carrell et al., 1991; Chaillan‐Huntington et al., 1997; Mourik et al., 1984) used for fibrinolytic therapy. Levels of PAI‐1 increase by up to three orders of magnitude in empyema (pleural sepsis), and organizing pleural injury (Aleman et al., 2003; Chung et al., 2005; Philip‐Joet et al., 1995), limiting endogenous and exogenous plasminogen activating activity that could help prevent or treat uncontrolled fibrin deposition induced by inflammation. First, DSP alone was used to treat pleural injury in both models to determine its effects on the endogenous fibrinolytic system. The results (Figure 2) clearly indicate that even a relatively high dose of DSP (2.0 mg/kg) is insufficient to mobilize endogenous fibrinolysis effectively once pleural injury has developed; there was no reversal effect with DSP alone. DSP alone, even at a 4‐fold higher dose (8.0 mg/kg), was also ineffective (GLIS>10) in treatment of empyema (Figure 2). Next, PAI‐1‐TFT with ...

[4] = test system: chemically induced (TCN) pleural injury; details: bolus, ref Idell et al., 2007; cited from earlier work
Source text: as §2

## Alteplase [sctPA, reference compound]
[1]
  kobs of intrapleural inactivation of plasminogen activating activity: 0.02 to 0.05 min⁻¹
[2]; with 2.0–8.0 mg/kg DSP
  kobs of intrapleural inactivation: 0.024 ± 0.010 min⁻¹
[3]
  MED for empyema relative to MED in TCN-induced pleural injury: 13.8 fold
[4]
  Minimal effective dose (MED) of plasminogen activator alone: 0.145 mg/kg

## Prourokinase [scuPA]
[1]
  kobs of intrapleural inactivation of plasminogen activating activity: 0.02 to 0.05 min⁻¹
[2]; with 2.0 mg/kg DSP
  kobs of intrapleural inactivation: 0.014 ± 0.008 min⁻¹
[3]
  MED for empyema relative to MED in TCN-induced pleural injury: 4 fold
[4]
  Minimal effective dose (MED) of plasminogen activator alone: 0.5 mg/kg
